From US20070020327A1
Read-outs that look alike come from different tables or passages of the source. Blank lines part the entries; values can stand above or below the binder they belong to.

Experiments:
[1] = target: HLA-A*0301 (human); assay: competition with 125I-labelled standard peptide for purified HLA-A*0301, gel filtration; ratio to the A*0301 standard peptide 941.12 [..] (11 nM)
[2] = target: HLA-A*0301 (human); assay: competition with 125I-labelled standard peptide on purified HLA-A*0301, gel filtration
[3] = target: HLA-A*0202 (human); assay: inhibition of 125I-standard peptide binding to purified HLA, gel filtration
[4] = target: HLA-A*0203 (human); assay: as above
[5] = target: HLA-A*1101 (human); assay: competition with 125I-labelled standard peptide for purified HLA-A*1101, gel filtration
[6] = target: HLA-A*0201 (human); assay: inhibition of 125I-labelled standard peptide binding to purified HLA-A*0201, gel filtration
[7] = target: HLA-A*6802 (human); assay: inhibition of 125I-labelled standard peptide binding to purified HLA-A*6802, gel filtration
[8] = target: HLA-A*0201 (human); assay: inhibition of 125I-standard peptide binding to purified HLA, gel filtration
[9] = target: HLA-A*0206 (human); assay: as above
[10] = target: HLA-A*0101 (human); assay: competition with 125I-labeled standard peptide for purified HLA-A*0101, gel filtration
[11] = target: HLA-A*1101 (human); assay: competition with a 125I-labelled standard peptide for purified HLA-A*1101, gel filtration; conditions: scale: ratio
[12] = target: HLA-A*0101 (human); assay: competition with 125I-labelled standard peptide for purified HLA-A*0101, gel filtration
[13] = target: HLA-A*0202 (human); assay: inhibition of 125I-labelled standard peptide binding to purified HLA-A*0202, gel filtration
[14] = target: HLA-A*0206 (human); assay: inhibition of 125I-labelled standard peptide binding to purified HLA-A*0206, gel filtration
[15] = target: HLA-A*0203 (human); assay: inhibition of 125I-labelled standard peptide binding to purified HLA-A*0203, gel filtration
[16] = target: HLA-A*0201 (human); assay: competitive inhibition of 125I-labelled standard peptide binding to purified HLA, gel filtration
[17] = target: HLA-A*0202 (human); assay: as above
[18] = target: HLA-A*0203 (human); assay: as above
[19] = remark: other sources report otherwise

binding affinity ratio (IC50 of standard peptide / IC50 of test peptide) [1, 19]: 0.06
Binder: CSGKIVIARY (modifications not checked) [PSM 196 peptide …]

binding affinity ratio (IC50 of standard peptide / IC50 of test peptide) [2]: 0.0005
Binder: LLHETDSAVA (modifications not checked) [… (PSM, position 4)]

binding affinity ratio (IC50 of standard peptide / IC50 of test peptide) [6, 19]: 0.0008
binding affinity ratio (IC50 of standard peptide / IC50 of test peptide) [7, 19]: -0.0002
Binder: CALPEKPAVYT (modifications not checked) [… (Kallikrein, position 234)]

binding affinity ratio (IC50 of standard peptide / IC50 of test peptide) [12]: 0.0001
Binder: RGAVEPDRY (modifications not checked) [… (PSM, position 363)]

binding affinity ratio (IC50 of standard peptide / IC50 of test peptide) [2]: 0.0006
Binder: LLSYPNKTH (modifications not checked) [… (PSM, position 116)]

binding affinity ratio (IC50 of standard peptide / IC50 of test peptide) [6]: 0.0001
binding affinity ratio (IC50 of standard peptide / IC50 of test peptide) [13]: 0.0003
binding affinity ratio (IC50 of standard peptide / IC50 of test peptide) [14]: -0.0001
binding affinity ratio (IC50 of standard peptide / IC50 of test peptide) [7]: -0.0002
Binder: CAGLWTGGKDT (modifications not checked) [… (Kallikrein, position 198)]

binding affinity ratio (IC50 of standard peptide / IC50 of test peptide) [12]: 0.001
Binder: TYELVEKFY (modifications not checked) [… (PSM, position 558)]

binding affinity ratio (IC50 of standard peptide / IC50 of test peptide) [2]: 0.0003
Binder: LSLLSLYGIH (modifications not checked) [… (PAP, position 241)]

binding affinity ratio [11]: 0.0002
binding affinity ratio (IC50 of standard peptide / IC50 of test peptide) [1]: 0.0003
Binder: DIESKVDPSK (modifications not checked) [PSM 714 peptide …]

binding affinity ratio (IC50 of standard peptide / IC50 of test peptide) [6, 19]: 0.0001
binding affinity ratio (IC50 of standard peptide / IC50 of test peptide) [14, 19]: 0.0002
binding affinity ratio (IC50 of standard peptide / IC50 of test peptide) [7, 19]: -0.0001
Binder: CLKKNSQVWL (modifications not checked) [… (Kallikrein, position 66)]

binding affinity ratio (IC50 of standard peptide / IC50 of test peptide) [12]: 0.001
Binder: WGEVKRQIY (modifications not checked) [… (PSM, position 725)]

binding affinity ratio (IC50 of standard peptide / IC50 of test peptide) [10]: 0.001
Binder: LFEPPPPGY (modifications not checked) [… (PSM, position 143)]

binding affinity ratio (IC50 of standard peptide / IC50 of test peptide) [5]: 0.0002
Binder: TLRGAVEPDR (modifications not checked) [PSM 361 …]

binding affinity ratio (IC50 of standard peptide / IC50 of test peptide) [2]: 0.0006
Binder: LLEKMGGSA (modifications not checked) [… (PSM, position 305)]

binding affinity ratio [11]: 0.0002
Binder: EIASKFSER (modifications not checked) [PSM 641 peptide …]

binding affinity ratio (IC50 of standard peptide / IC50 of test peptide) [2]: 0.001
Binder: LLPPYASCH (modifications not checked) [… (PAP, position 306)]

binding affinity ratio (IC50 of standard peptide / IC50 of test peptide) [10]: 0.0011
Binder: EPALGTTCY (modifications not checked) [… (Kallikrein, position 145; PSA, position 141)]

binding affinity ratio (IC50 of standard peptide / IC50 of test peptide) [1]: 0.0006
Binder: DALFDIESK (modifications not checked) [PSM 710 peptide …]

binding affinity ratio (ratio to standard peptide) [16]: 0.0003
binding affinity ratio (ratio to standard peptide) [17]: 0.0084
binding affinity ratio (ratio to standard peptide) [18]: 0.0088
Binder: ITDVVKVLGL (modifications not checked) [… (Kallikrein, position 132)]

binding affinity ratio (IC50 of standard peptide / IC50 of test peptide) [10]: 0.004
Binder: AGESFPGIY (modifications not checked) [… (PSM, position 701)]

binding affinity ratio (IC50 of standard peptide / IC50 of test peptide) [12, 19]: 0.62
Binder: LTQLGMEQHY (modifications not checked) [… (PAP, position 70)]

binding affinity ratio (IC50 of standard peptide / IC50 of test peptide) [10]: 0.0001
Binder: KAENIKKFLY (modifications not checked) [… (PSM, position 66)]

Continued, binder first:

Binder: LTPKKLQCVDL (modifications not checked) [PSA 162 …]
binding affinity ratio (IC50 standard peptide / IC50 test peptide) (ratio to standard peptide) [3, 19]: 0.0087
binding affinity ratio (IC50 standard peptide / IC50 test peptide) (ratio to standard peptide) [4, 19]: 0.0074

Binder: TGQVFQVSH (modifications not checked) [PSA 82 …]
binding affinity ratio (IC50 of standard peptide / IC50 of test peptide) [5]: 0.0002

Binder: LTLSVTWIGA (modifications not checked)
binding affinity ratio (IC50 standard peptide / IC50 test peptide) (ratio to standard peptide) [8, 19]: 0.0018
binding affinity ratio (IC50 standard peptide / IC50 test peptide) (ratio to standard peptide) [3, 19]: 0.045
binding affinity ratio (IC50 standard peptide / IC50 test peptide) (ratio to standard peptide) [4, 19]: 0.082
binding affinity ratio (IC50 standard peptide / IC50 test peptide) (ratio to standard peptide) [9, 19]: 0.011

Binder: LPERPSLY (modifications not checked) [LPERPSLY (PSA, position 232)]
binding affinity ratio (IC50 of standard peptide / IC50 of test peptide) [10]: 0.0002

Binder: DMSLLKNR (modifications not checked) [PSA 98 peptide DMSLLKNR]
binding affinity ratio [11]: 0.0001
binding affinity ratio (IC50 of standard peptide / IC50 of test peptide) [1]: 0.0003

Binder: LTDAVKVM (modifications not checked) [PSA 128 LTDAVKVM]
binding affinity ratio (IC50 standard peptide / IC50 test peptide) (ratio to standard peptide) [8]: 0.0001
binding affinity ratio (IC50 standard peptide / IC50 test peptide) (ratio to standard peptide) [3]: -0.0001
binding affinity ratio (IC50 standard peptide / IC50 test peptide) (ratio to standard peptide) [4]: 0.0002
binding affinity ratio (IC50 standard peptide / IC50 test peptide) (ratio to standard peptide) [9]: -0.0001

Binder: LLSNDMCARA (modifications not checked) [Kallikrein 178 …]
binding affinity ratio (IC50 standard peptide / IC50 test peptide) (ratio to standard peptide) [8, 19]: 0.003
binding affinity ratio (IC50 standard peptide / IC50 test peptide) (ratio to standard peptide) [3, 19]: 0.08
binding affinity ratio (IC50 standard peptide / IC50 test peptide) (ratio to standard peptide) [4, 19]: 0.028
binding affinity ratio (IC50 standard peptide / IC50 test peptide) (ratio to standard peptide) [9, 19]: 0.002

Binder: DVLLSYPNK (modifications not checked) [PSM 114 peptide …]
binding affinity ratio [11]: 0.001

Binder: TLVFRHGDR (modifications not checked) [PAP 39 …]
binding affinity ratio (IC50 of standard peptide / IC50 of test peptide) [5]: 0.0002

Binder: DTFPTDPIK (modifications not checked) [PAP 51 peptide …]
binding affinity ratio [11]: 0.0001

Binder: CALPEKPA (modifications not checked) [CALPEKPA (Kallikrein, position 234)]
binding affinity ratio (IC50 of standard peptide / IC50 of test peptide) [6]: -0.0001
binding affinity ratio (IC50 of standard peptide / IC50 of test peptide) [13]: -0.0001
binding affinity ratio (IC50 of standard peptide / IC50 of test peptide) [15]: -0.0001
binding affinity ratio (IC50 of standard peptide / IC50 of test peptide) [14]: -0.0001
binding affinity ratio (IC50 of standard peptide / IC50 of test peptide) [7]: -0.0001

Binder: LTLSVTWI (modifications not checked) [PSA 4 LTLSVTWI]
binding affinity ratio (IC50 standard peptide / IC50 test peptide) (ratio to standard peptide) [8]: 0.0003
binding affinity ratio (IC50 standard peptide / IC50 test peptide) (ratio to standard peptide) [3]: -0.0001
binding affinity ratio (IC50 standard peptide / IC50 test peptide) (ratio to standard peptide) [4]: 0.0006

Binder: LLRLSEPAKI (modifications not checked) [Kallikrein 123 …]
binding affinity ratio (IC50 standard peptide / IC50 test peptide) (ratio to standard peptide) [8, 19]: 0.003
binding affinity ratio (IC50 standard peptide / IC50 test peptide) (ratio to standard peptide) [9, 19]: 0.001

Binder: CLKKNSQV (modifications not checked) [CLKKNSQV (Kallikrein, position 66)]
binding affinity ratio (IC50 of standard peptide / IC50 of test peptide) [6]: 0.0001
binding affinity ratio (IC50 of standard peptide / IC50 of test peptide) [13]: 0.0006
binding affinity ratio (IC50 of standard peptide / IC50 of test peptide) [15]: 0.0006
binding affinity ratio (IC50 of standard peptide / IC50 of test peptide) [14]: -0.0001
binding affinity ratio (IC50 of standard peptide / IC50 of test peptide) [7]: -0.0001

Binder: GMPEGDLVY (modifications not checked) [PSM 168 peptide …]
binding affinity ratio (IC50 of the standard peptide / IC50 of the test peptide) [5]: 0.0002

Binder: TAAHCIRNK (modifications not checked) [PSA 58 …]
binding affinity ratio (IC50 of standard peptide / IC50 of test peptide) [5, 19]: 0.014

Binder: LTLSVTWIGAA (modifications not checked)
binding affinity ratio (IC50 standard peptide / IC50 test peptide) (ratio to standard peptide) [8, 19]: 0.0008
binding affinity ratio (IC50 standard peptide / IC50 test peptide) (ratio to standard peptide) [3, 19]: 0.0014
binding affinity ratio (IC50 standard peptide / IC50 test peptide) (ratio to standard peptide) [4, 19]: 0.037
binding affinity ratio (IC50 standard peptide / IC50 test peptide) (ratio to standard peptide) [9, 19]: 0.0025

Binder: CSPSCPLER (modifications not checked) [PAP 347 peptide …]
binding affinity ratio (IC50 of standard peptide / IC50 of test peptide) [1]: 0.004
